Source: patent US20210025877A1 (CYTOMX THERAPEUTICS, published 2021)

Target: T1, anti-PDL1 activatable antibody PL07-2001-C5H9v2 (intact)
T1 construct: In the Wes assay the sample is separated by SDS-based capillary electrophoresis before probing; also called AA
Test: Wes capillary electrophoresis immunoassay, mouse plasma

T1 sequence (heavy, as listed by the source, chain 1 of 2): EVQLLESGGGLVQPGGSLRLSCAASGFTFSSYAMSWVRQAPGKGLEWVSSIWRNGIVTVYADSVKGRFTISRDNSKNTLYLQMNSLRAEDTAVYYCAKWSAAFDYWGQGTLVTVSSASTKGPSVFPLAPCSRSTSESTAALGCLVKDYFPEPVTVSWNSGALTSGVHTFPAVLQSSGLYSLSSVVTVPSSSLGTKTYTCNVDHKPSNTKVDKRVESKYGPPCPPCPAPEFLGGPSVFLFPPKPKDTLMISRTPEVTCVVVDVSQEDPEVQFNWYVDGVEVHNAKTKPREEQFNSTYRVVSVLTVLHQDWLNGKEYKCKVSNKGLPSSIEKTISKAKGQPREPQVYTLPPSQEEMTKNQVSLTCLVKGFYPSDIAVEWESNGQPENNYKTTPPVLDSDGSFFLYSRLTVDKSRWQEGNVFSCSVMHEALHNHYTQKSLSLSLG
T1 sequence (light, as listed by the source, chain 2 of 2): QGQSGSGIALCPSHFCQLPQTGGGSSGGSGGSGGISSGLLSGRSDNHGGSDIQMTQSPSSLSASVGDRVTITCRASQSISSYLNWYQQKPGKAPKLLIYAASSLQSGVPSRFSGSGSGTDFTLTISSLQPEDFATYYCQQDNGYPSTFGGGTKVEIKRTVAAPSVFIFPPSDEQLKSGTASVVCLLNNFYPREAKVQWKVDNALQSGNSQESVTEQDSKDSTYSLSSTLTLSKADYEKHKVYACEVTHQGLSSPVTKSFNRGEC

B1: anti-idiotypic antibody 17G1 (antibody, mouse IgG2a, kappa, V domains shown)
VH: EVQLVESGGDLVKPGGSLKVSCAASGFTFSSYGMSWVRQTPDKRLEWVATISPSGIYTYYPVTVKGRFTISRDNAKNTLYLQMSSLKSEDTAMYFCARHHPNYGSTYLYYIDYWGQGTALTVSS
VL: NIMMTQSPSSLAVSAGEKVTMACKSSQSVFSSSNQKNYLAWYQQKPGQSPKILIYWAFTRESGVPDRFSGSGSGTDFTLTISSVQAEDLAVYYCYQYLSSLTFGAGTKLEVKA
notes: Mouse monoclonal, mIgG2a heavy chain and mouse kappa light chain; also called anti-id antibody 17G1; anti-id 17G1 antibody
B1: binds.
